Measurements: patent US20110070610

T1: pACSH360 fusion protein (S661 peptide with N-terminal SEQ ID NO:19 tag and HAV18 3C cleavage site linker)
T1 chain: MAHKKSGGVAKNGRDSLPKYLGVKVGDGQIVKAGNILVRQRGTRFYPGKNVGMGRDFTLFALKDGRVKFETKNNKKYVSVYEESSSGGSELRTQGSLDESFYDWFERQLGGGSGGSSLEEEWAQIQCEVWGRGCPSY

T2: pACSH248 fusion protein (S661 peptide with N-terminal SEQ ID NO:19 tag and TEV cleavage site linker)
T2 chain: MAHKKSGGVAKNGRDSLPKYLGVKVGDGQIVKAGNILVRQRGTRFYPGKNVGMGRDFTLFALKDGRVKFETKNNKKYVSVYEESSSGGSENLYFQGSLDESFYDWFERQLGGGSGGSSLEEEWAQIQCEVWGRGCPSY

B1: pACSH362 protease (SEQ ID NO:10 tagged HAV18 3C protease) (protein)
chain: MKVILLRDVPKIGKKGEIKEVSDGYARNYLIPRGFAKEYTEGLERAIKHEKEIEKRKKEREREESEKILKELKKRTHVVKVKAGEGGKIFGAVTAATVAEEISKTTGLKLDKRWFKLDKPIKELGEYSLEVSLPGGVKDTIKIRVEREESSSGSGSGSGSTLEIAGLVRKNLVQFGVGEKNGCVRWVMNALGVKDDWLLVPSHAYKFEKDYEMMEFYFNRGGTYYSISAGNVVIQSLDVGFQDVVLMKVPTIPKFRDITEHFIKKGDVPRALNRLATLVTTVNGTPMLISEGPLKMEEKATYVHKKNDGTTVDLTVDQAWRGKGEGLPGMCGGALVSSNQSIQNAILGIHVAGGNSILVAKLVTQEMFQNIDKKIESQ
B2: pACSH307 protease (SEQ ID NO:10 tagged TEV protease) (protein)
chain: MKVILLRDVPKIGKKGEIKEVSDGYARNYLIPRGFAKEYTEGLERAIKHEKEIEKRKKEREREESEKILKELKKRTHVVKVKAGEGGKIFGAVTAATVAEEISKTTGLKLDKRWFKLDKPIKELGEYSLEVSLPGGVKDTIKIRVEREESSSGSSGSSGSSGESLFKGPRDYNPISSTICHLTNESDGHTTSLYGIGFGPFIITNKHLFRRNNGTLLVQSLHGVFKVKNTTTLQQHLIDGRDMIIIRMPKDFPPFPQKLKFREPQREERICLVTTNFQTKSMSSMVSDTSCTFPSSDGIFWKHWIQTKDGQCGSPLVSTRDGFIVGIHSASNFTNTNNYFTSVPKNFMELLTNQEAQQWVSGWRLNADSVLWGGHKVFMVKPEEPFQPVKEATQLMN

Assays:
[1] = target: T1, pACSH360 fusion protein (S661 peptide …)
[2] = target: T2, pACSH248 fusion protein (S661 peptide …)

Row | Protein | cleavage of fusion protein, LC-MS, 7 hours at 37° C., enzyme to substrate ratio 1:10 or 1:50 [1] | cleavage of fusion protein, LC-MS, 8 hours, enzyme to substrate ratio 1:1 [2]
1 | B1 | A fragment representing the released S661 peptide was observed for both ratios | 
2 | B2 |  | after incubation for 8 hours with an enzyme to substrate ration of 1:1, the major part of the S661 peptide was released from the pACSH248 fusion protein
